Article PMC5134256 (Nature, 2016)

Molecular target: the molecule itself
Assay: crystal structure

B1: Cse2 subunit of E. coli Cascade, His6 tag cleaved (natural protein, E. coli K12, UniProt P76632 1-160, looked up)
chain: MADEIDAMALYRAWQQLDNGSCAQIRRVSEPDELRDIPAFYRLVQPFGWENPRHQQALLRMVFCLSAGKNVIRHQDKKSEQTTGISLGRALANSGRINERRIFQLIRADRTADMVQLRRLLTHAEPVLDWPLMARMLTWWGKRERQQLLEDFVLTTNKNA
stoichiometry N: 2
